Measured values reported in article PMC4703952, “Probing Intersubunit Interfaces in AMPA-subtype Ionotropic Glutamate Receptors” (Scientific Reports, 2016).
Changes are numbered by the printed parent chain. In names and notes the source's numbering stands.

Tests used:
Test in all cases: SEC; FSEC of ~10% of the protein dialysed into non-reducing buffers with the various ligands; 150 mM NaCl, 20 mM Tris-HCl pH 8.0, 1 mM C12M, lipid
[1] = biological target: GluA2_(C589A-Thr) G212C (rat)
[2] = biological target: GluA2_(C589A-Thr) I211C (rat)
[3] = biological target: GluA2_(C589A-Thr) V215C (rat)
[4] = biological target: GluA2_(C589A-Thr) I209C (rat)
[5] = biological target: the molecule itself

GluA2_(C589A-Thr) G212C (receptor)
stoichiometry N [1]: 4

GluA2_(C589A-Thr) I211C (receptor)
stoichiometry N [2]: 4

GluA2_(C589A-Thr) V215C (receptor)
stoichiometry N [3]: 4

GluA2_(C589A-Thr) I209C (receptor)
stoichiometry N [4]: 4

B1: GluA2_(C589A-Thr) K663C (receptor, rat)
chain: VSSNSIQIGGLFPRGADQEYSAFRVGMVQFSTSEFRLTPHIDNLEVANSFAVTNAFCSQFSRGVYAIFGFYDKKSVNTITSFCGTLHVSFITPSFPTDGTHPFVIQMRPDLKGALLSLIEYYQWDKFAYLYDSDRGLSTLQAVLDSAAEKKWQVTAINVGNINNDKKDETYRSLFQDLELKKERRVILDCERDKVNDIVDQVITIGKHVKGYHYIIANLGFTDGDLLKIQFGGANVSGFQIVDYDDSLVSKFIERWSTLEEKEYPGAHTATIKYTSALTYDAVQVMTEAFRNLRKQRIEISRRGNAGDCLANPAVPWGQGVEIERALKQVQVEGLSGNIKFDQNGKRINYTINIMELKTNGPRKIGYWSEVDKMVVTLTELPSGNDTSGLENKTVVVTTILESPYVMMKKNHEMLEGNERYEGYCVDLAAEIAKHCGFKYKLTIVGDGKYGARDADTKIWNGMVGELVYGKADIAIAPLTITLVREEVIDFSKPFMSLGISIMIKKPQKSKPGVFSFLDPLAYEIWMCIVFAYIGVSVVLFLVSRFSPYEWHTEEFEDGRETQSSESTNEFGIFNSLWFSLGAFMQQGADISPRSLSGRIVGGVWWFFTLIIISSYTANLAAFLTVERMVSPIESAEDLSKQTEIAYGTLDSGSTKEFFRRSCIAVFDKMWTYMRSAEPSVFVRTTAEGVARVRKSKGKYAYLLESTMNEYIEQRKPCDTMKVGGNLDSKGYGIATPKGSSLGTPVNLAVLKLSEQGVLDKLKNKWWYDKGECGAKDSGSKEKTSALSLSNVAGVFYILVGGLGLAMLVALIEFCYKSRAEAKRMKVAKNPQNINPSSSQNSQNFATYKEGYNVYGIESVKIGLVPR
notes: signal peptide in the construct; AMPA receptor subunit GluA2, flip form (GluA2i), rat, NP_058957, full length including the native signal peptide; extra residues left from the thrombin cleavage site at the distal C-terminus after digestion; Single cysteine substitution in m1, LBD dimer-dimer interface; source: HEK293 GnTI- cells, baculovirus-transduced (BacMam), purified (streptactin resin, …)
stoichiometry N [5]: 4

B2: GluA2_(C589A-Thr) (receptor, rat)
chain: B1 chain with C663K
notes: signal peptide in the construct; AMPA receptor subunit GluA2 (GluRB, GluR2), flip form (GluA2i), rat, NP_058957, full length including the native signal peptide; extra residues left from the thrombin cleavage site (GLVPRG) at the distal C-terminus after digestion; Tetrameric membrane protein in C12M detergent with lipid; Purified under reducing conditions; also called WT; parent; source: HEK293 …
stoichiometry N [5]: 4

B3: GluA2_(C589A-Thr) A665C (receptor, rat)
chain: B1 chain with C663K, A665C
notes: as for B1
stoichiometry N [5]: 4

B4: GluA2_(C589A-Thr) R628C (receptor, rat)
chain: B1 chain with R628C, C663K
notes: signal peptide in the construct; AMPA receptor subunit GluA2, flip form (GluA2i), rat, NP_058957, full length including the native signal peptide; extra residues left from the thrombin cleavage site at the distal C-terminus after digestion; Single cysteine substitution in m1, LBD-TMD linker region (M3-S2 linker); source: HEK293 GnTI- cells, baculovirus-transduced (BacMam), purified (streptactin …)
stoichiometry N [5]: 4

B5: GluA2_(C589A-Thr) A621C (receptor, rat)
chain: B1 chain with A621C, C663K
notes: signal peptide in the construct; AMPA receptor subunit GluA2, flip form (GluA2i), rat, NP_058957, full length including the native signal peptide; extra residues left from the thrombin cleavage site at the distal C-terminus after digestion; source: HEK293 GnTI- cells, baculovirus-transduced (BacMam), purified (streptactin resin, thrombin digestion, SEC Superose 6); not shown: eGFP, C-terminal, …
stoichiometry N [5]: 4

B6: GluA2_(C589A-Thr) I664C (receptor, rat)
chain: B1 chain with C663K, I664C
notes: as for B1
stoichiometry N [5]: 4
